Reference: patent US20250057970A1, “TROP2 TARGETING ANTIBODY-DRUG CONJUGATE, AND PREPARATION METHOD AND USE THEREFOR” (priority 2020, published 2025)
Like-named read-outs stand apart in the source and are kept apart here. Numbered stars: 1 amine (or outer) side, 2 acyl side, 3 side chain; on linkers, the order of the positions; unused ones are H or OH. Square brackets hold non-standard residues; d marks the D form. Peptide text beside a SMILES is read from it. * marks the point of attachment. Exatecan = CC[C@@]1(O)C(=O)OCc2c1cc1n(c2=O)Cc2c-1nc1cc(F)c(C)c3c1c2[C@@H](N*)CC3; Hexanoyl(6-maleimido) = O=C1C=CC(=O)N1CCCCCC(=O)*; NHCH2OCH2CO = O=C(COCN[*:1])[*:2]

Columns and labels:
cathepsin B = cathepsin B (Homo sapiens, UniProt P07858); conditions: for speed of enzyme digestion: pH range 5.0 to 7.0
Text: Samples were taken at different time points and entered into a high-performance liquid chromatography-mass spectrometry instrument. The external standard method (with DXD as the external standard) was used to determine the release percentage of the drug.

NCI-N87 cell line = assay: Killing activity on NCI-N87 before and after cathepsin B digestion; type: cell-based, human; conditions: NCI-N87, 144 hours, read-out: IC50 (based on SN-38 equivalent)
Method: NCI-N87 cell line was selected as the experimental cell lines. After the sample was incubated in cathepsin B system (100 mM sodium acetate-acetic acid buffer, 4 mM dithiothreitol, pH 5.0) at 37° C. for 4 hours, the obtained sample was diluted with culture medium to different concentrations. 8 concentrations (1.5 to 10-fold dilution) were set from 70 nM to 0.003 nM of SN-38 concentration. […] The IC50 value was calculated by reading the […] data after chemical luminescent staining with CellTiter-Glo® Luminescent Cell Viability Assay.

[1] = molecular target: T1, Tumor-associated calcium signal transducer 2 (UniProt P09758 27-323, limits assumed); assay: cell-based or functional assay
T1 sequence (looked up): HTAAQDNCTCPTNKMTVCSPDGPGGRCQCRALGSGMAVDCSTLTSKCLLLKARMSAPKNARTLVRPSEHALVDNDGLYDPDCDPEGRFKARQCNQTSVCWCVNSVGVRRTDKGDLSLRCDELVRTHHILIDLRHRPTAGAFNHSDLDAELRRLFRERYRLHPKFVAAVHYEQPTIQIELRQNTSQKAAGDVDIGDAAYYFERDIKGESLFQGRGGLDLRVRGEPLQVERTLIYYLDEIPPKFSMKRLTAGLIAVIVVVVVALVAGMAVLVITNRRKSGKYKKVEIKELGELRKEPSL

CC[C@@]1(O)C(=O)OCc2c1cc1n(c2=O)Cc2c-1nc1cc(F)c(C)c3c1c2[C@@H](NC(=O)COCNC(=O)CNC(=O)[C@H](Cc1ccccc1)NC(=O)CNC(=O)CNC(=O)CCCCCN1C(=O)C=CC1=O)CC3 [GGFG-Dxd, reference compound] ({Hexanoyl(6-maleimido)}-GGFG[NHCH2OCH2CO]-Exatecan)
speed of enzyme digestion (cathepsin B): slow speed of enzyme digestion

CC[C@@]1(O)C(=O)OCc2c1cc1n(c2=O)Cc2c-1nc1cc(F)c(C)c3c1c2[C@@H](NC(=O)COCN(CCS(C)(=O)=O)C(=O)OCc1ccc(NC(=O)[C@H](C)NC(=O)[C@@H](NC(=O)CCCCCN2C(=O)C=CC2=O)C(C)C)cc1)CC3 [LE14]
Percentage of drug release in the sample (cathepsin B; pH 5.0, 0 h): 13.82%
Percentage of drug release in the sample (cathepsin B; pH 5.0, 1 h): 96.0%
Percentage of drug release in the sample (cathepsin B; pH 5.0, 2 h): 98.35%
Percentage of drug release in the sample (cathepsin B; pH 5.0, 3 h): 99.12%
Percentage of drug release in the sample (cathepsin B; pH 5.0, 4 h): 99.21%
Percentage of drug release in the sample (cathepsin B; pH 5.0, 5 h): 99.45%
Percentage of drug release in the sample (cathepsin B; pH 5.0, 6 h): 98.23%
Percentage of drug release in the sample (cathepsin B; pH 6.0, 0 h): 14.32%
Percentage of drug release in the sample (cathepsin B; pH 6.0, 1 h): 96.12%
Percentage of drug release in the sample (cathepsin B; pH 6.0, 2 h): 96.75%
Percentage of drug release in the sample (cathepsin B; pH 6.0, 3 h): 98.52%
Percentage of drug release in the sample (cathepsin B; pH 6.0, 4 h): 98.45%
Percentage of drug release in the sample (cathepsin B; pH 6.0, 5 h): 98.92%
Percentage of drug release in the sample (cathepsin B; pH 6.0, 6 h): 99.15%
Percentage of drug release in the sample (cathepsin B; pH 7.0, 0 h): 16.59%
Percentage of drug release in the sample (cathepsin B; pH 7.0, 1 h): 98.32%
Percentage of drug release in the sample (cathepsin B; pH 7.0, 2 h): 98.45%
Percentage of drug release in the sample (cathepsin B; pH 7.0, 3 h): 99.12%
Percentage of drug release in the sample (cathepsin B; pH 7.0, 4 h): 99.12%
Percentage of drug release in the sample (cathepsin B; pH 7.0, 5 h): 99.87%
Percentage of drug release in the sample (cathepsin B; pH 7.0, 6 h): 99.47%
speed of enzyme digestion (cathepsin B): quickly enzymatically digested

CCc1c2c(nc3ccc(O)cc13)-c1cc3c(c(=O)n1C2)COC(=O)[C@]3(O)CC [SN-38, 7-ethyl-10-hydroxycamptothecin, reference compound]
IC50 (NCI-N87 cell line; After Enzyme Digestion (cathepsin B, pH 5.0, 37° C., 4 hours)): 7.43 nM
IC50 (NCI-N87 cell line; Before Enzyme Digestion): 7.18 nM

B1: FDA018-LE12 (antibody, human IgG1, kappa, V domains shown)
VH: QVQLQQSGSELKKPGASVKVSCKASGYTFTNYGMNWVKQAPGQGLKWMGWINTYTGEPTYTDDFKGRFAFSLDTSVSTAYLQISSLKADDTAVYFCARGGFGSSYWYFDVWGQGSLVTVSS
VL: DIQLTQSPSSLSASVGDRVSITCKASQDVSIAVAWYQQKPGKAPKLLIYSASYRYTGVPDRFSGSGSGTDFTLTISSLQPEDFAVYYCQQHYITPLTFGAGTKVEIKR
modifications: linker-drug LE12 (Dxd payload) coupled to cysteine sulfhydryl groups after reduction of the interchain disulfide bonds; DAR 3.90 for the whole antibody; sites not stated
IC50 (nM), in vitro killing activity, BXPC3 Cell [1]: 0.68 nM
IC50 (nM), in vitro killing activity, MDA-MB-468 Cell [1]: 1.03 nM
IC50 (nM), in vitro killing activity, NCI-N87 Cell [1]: 1.12 nM

B2: FDA018-LE18 (antibody, human IgG1, kappa, V domains shown)
VH: B1 VH
VL: B1 VL
modifications: linker-drug LE18 coupled to cysteine sulfhydryl groups after reduction of the interchain disulfide bonds; DAR 3.96 for the whole antibody; sites not stated
IC50 (nM), in vitro killing activity, MDA-MB-468 Cell [1]: 0.86 nM

B3: FDA018-LE20 (antibody, human IgG1, kappa, V domains shown)
VH: B1 VH
VL: B1 VL
modifications: linker-drug LE20 coupled to cysteine sulfhydryl groups after reduction of the interchain disulfide bonds; DAR 3.88 for the whole antibody; sites not stated
IC50 (nM), in vitro killing activity, NCI-N87 Cell [1]: 1.15 nM

B4: FDA018-LE14 (antibody, human IgG1, kappa, V domains shown)
VH: B1 VH
VL: B1 VL
modifications: linker-drug LE14 coupled to cysteine sulfhydryl groups after reduction of the interchain disulfide bonds; DAR 4.00 for the whole antibody; sites not stated
IC50 (nM), in vitro killing activity, BXPC3 Cell [1]: 0.5 nM
IC50 (nM), in vitro killing activity, MDA-MB-468 Cell [1]: 0.8 nM
IC50 (nM), in vitro killing activity, NCI-N87 Cell [1]: 1.08 nM

B5: FDA018-LE22 (antibody, human IgG1, kappa, V domains shown)
VH: B1 VH
VL: B1 VL
modifications: linker-drug LE22 coupled to cysteine sulfhydryl groups after reduction of the interchain disulfide bonds; DAR 4.00 for the whole antibody; sites not stated
IC50 (nM), in vitro killing activity, BXPC3 Cell [1]: 1.69 nM
IC50 (nM), in vitro killing activity, NCI-N87 Cell [1]: 3.25 nM

B6: FDA018-GGFG-Dxd (antibody, human IgG1, kappa, V domains shown)
VH: B1 VH
VL: B1 VL
modifications: linker-drug GGFG-Dxd coupled to cysteine sulfhydryl groups after reduction of the interchain disulfide bonds; DAR 4.03 for the whole antibody; sites not stated
IC50 (nM), in vitro killing activity, BXPC3 Cell [1]: 0.61 nM
IC50 (nM), in vitro killing activity, MDA-MB-468 Cell [1]: 1.2 nM
IC50 (nM), in vitro killing activity, NCI-N87 Cell [1]: 1.1 nM

B7: FDA018-LE17 (antibody, human IgG1, kappa, V domains shown)
VH: B1 VH
VL: B1 VL
modifications: linker-drug LE17 coupled to cysteine sulfhydryl groups after reduction of the interchain disulfide bonds; DAR 3.98 for the whole antibody; sites not stated
IC50 (nM), in vitro killing activity, BXPC3 Cell [1]: 0.62 nM
IC50 (nM), in vitro killing activity, MDA-MB-468 Cell [1]: 0.82 nM
IC50 (nM), in vitro killing activity, NCI-N87 Cell [1]: 1.12 nM

B8: FDA018-LE21 (antibody, human IgG1, kappa, V domains shown)
VH: B1 VH
VL: B1 VL
modifications: linker-drug LE21 coupled to cysteine sulfhydryl groups after reduction of the interchain disulfide bonds; DAR 4.05 for the whole antibody; sites not stated
IC50 (nM), in vitro killing activity, BXPC3 Cell [1]: 1.23 nM
IC50 (nM), in vitro killing activity, NCI-N87 Cell [1]: 1.23 nM

B9: FDA018-LE13 (antibody, human IgG1, kappa, V domains shown)
VH: B1 VH
VL: B1 VL
modifications: linker-drug LE13 coupled to cysteine sulfhydryl groups after reduction of the interchain disulfide bonds; DAR 4.10 for the whole antibody; sites not stated
IC50 (nM), in vitro killing activity, BXPC3 Cell [1]: 1.23 nM
IC50 (nM), in vitro killing activity, MDA-MB-468 Cell [1]: 2 nM
IC50 (nM), in vitro killing activity, NCI-N87 Cell [1]: 2.34 nM

B10: FDA018-LE15 (antibody, human IgG1, kappa, V domains shown)
VH: B1 VH
VL: B1 VL
modifications: linker-drug LE15 coupled to cysteine sulfhydryl groups after reduction of the interchain disulfide bonds; DAR 4.12 for the whole antibody; sites not stated
IC50 (nM), in vitro killing activity, BXPC3 Cell [1]: 0.96 nM
IC50 (nM), in vitro killing activity, MDA-MB-468 Cell [1]: 0.93 nM
IC50 (nM), in vitro killing activity, NCI-N87 Cell [1]: 0.98 nM

B11: FDA018-LE16 (antibody, human IgG1, kappa, V domains shown)
VH: B1 VH
VL: B1 VL
modifications: linker-drug LE16 coupled to cysteine sulfhydryl groups after reduction of the interchain disulfide bonds; DAR 4.03 for the whole antibody; sites not stated
IC50 (nM), in vitro killing activity, BXPC3 Cell [1]: 1.58 nM
IC50 (nM), in vitro killing activity, MDA-MB-468 Cell [1]: 1.64 nM
IC50 (nM), in vitro killing activity, NCI-N87 Cell [1]: 1.35 nM

B12: FDA018-LS13 (antibody, human IgG1, kappa, V domains shown)
VH: B1 VH
VL: B1 VL
modifications: linker-drug LS13 (SN-38 payload) coupled to cysteine sulfhydryl groups after reduction of the interchain disulfide bonds; DAR 3.97 for the whole antibody; sites not stated
IC50 (nM), in vitro killing activity, BXPC3 Cell [1]: 61.3 nM
IC50 (nM), in vitro killing activity, MDA-MB-468 Cell [1]: 67.4 nM

B13: FDA018-LE19 (antibody, human IgG1, kappa, V domains shown)
VH: B1 VH
VL: B1 VL
modifications: linker-drug LE19 coupled to cysteine sulfhydryl groups after reduction of the interchain disulfide bonds; DAR 4.13 for the whole antibody; sites not stated
IC50 (nM), in vitro killing activity, MDA-MB-468 Cell [1]: 1.03 nM
